The text below walks through data of the nanobody polyreactivity screen of Harvey et al. (2022).

The nature of this series: yeast display, Sf9 membrane polyspecificity reagent, FACS + sequencing; frameworks hold sequencing errors. The gist of the method:
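After 36–48 hours of galactose induction, yeast (Saccharomyces cerevisiae BJ5465) displaying a synthetic nanobody library were stained at 4 °C for 1 hour with 10% biotinylated, detergent-solubilized Sf9 membrane reagent. Streptavidin microbeads enriched the stained cells before FACS sorting into low and high (top ~1%) gates on anti-HA and streptavidin fluorescence. Each clone's polyreactivity label reflects its gate of origin.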
For the sequence “QVQLVESGGCLVQAGGSLRLSCAASGFIFSEYAMGWYRQAPGKERELVVAIDVGGGSTYYADSVKGRFTISRDNAKNTVYLQMNSLKPEDTAVYYCAATQYGYWVPYQGFDYWGLGTQVTVSS”, the “polyreactivity (PSR sort gate)” value is “low polyreactivity”.

Take “QVQLVESGGGLVQAGGSLRLSCAASGIIFNTYAMGWYRQAPGKERELVAAIDSRDASTYADSVKGRFTISRDNAKNTVYLQMNSLKPEDTAVYYCAATHIVDLISEVYYWGQGTQVTVSS”: the “polyreactivity (PSR sort gate)” value is recorded as “low polyreactivity”.

In the case of “QVQLVESGGGLVQAGGSLRLSCAASGSTFGYNAMGWYRQAPGKERELVATITSTGGGTYYADSVKGRFTISRDNAKNTVYLQMNSLKPEDTAVYYCAAVYYSLDYVHGYPPHYDYWGQGTQVTVSS”, the “polyreactivity (PSR sort gate)” value is reported as “low polyreactivity”.

“QVQLVESGGGLDQAGGSLRLSCAATGGTFTRKAMGWYRQAPGKERELVASITSGDTTNYADSVKGRFTISRDNAKNTVYLQMNSLKPEDTAVYYCATDTPTDRYAAYPHDPYYYWGQGTQVTVSS”: the “polyreactivity (PSR sort gate)” value is given as “low polyreactivity”.

Take “QVQLVESGGGLVQAGGSLRLSCAAYGSTFWPYAKGWSRQAPGKERELVAAISSSGGSTYYADSVKGRFTISRDNAKHTVYLQMNSLIPEDTAVYYCNIDYHRPYGGGSKGDFWGQGTQVTVSS”: the “polyreactivity (PSR sort gate)” value is listed as “low polyreactivity”.

On to “QVQLVESGGGLVQAGGSLRLSCAASGFTFRNYAMGWYRQAPGKERELVAAISKRGGNTYYADSVKGRFTISRDNAKNTVYLQLYSLKREDTAVYYCAADYQFSQDVWHFGYWGLGTQVTVSS”, for which the “polyreactivity (PSR sort gate)” value is “high polyreactivity”.

Turning to “QVQLVESGGGLVQAGGSLRLSCAASGRTFRKYGMGWYRPAPGTERELVAAITRSGGSTYYADSVKGRFTISRDNAKNTVYLQMNCLKPEDTSVYYCARSPVVVGSFLSYDYLGQGTQVTVSS”, the “polyreactivity (PSR sort gate)” value is reported as “high polyreactivity”.

Consider “QVQLVESGGGLVQAGGSLRLSCAASGRIFTSYAMGWYRQAPGKEREFVAAITKSGGSTYYADSVKGRFTISRDNAKNTVYLQMNSLKPEDTAVYYCAVEGWDVYQDPYLYDYWGQGTQVTVSS”, for which the “polyreactivity (PSR sort gate)” value is listed as “low polyreactivity”.

In the case of “QVQLVESGVGLVQAGGSLRLSCAASGRTSAQYGMGWYRQAPGKERELVATITTSGGRTYYADSVKGRFTISRDTAKNTVYLQMNSLKPEDTAVYYGAAEGWTTPTPTSDDNQWWYDYWGQGTQVTVSS”, the “polyreactivity (PSR sort gate)” value was “high polyreactivity”.

On to “QVQLVESGGGLVQAGGSLRISCAASGNTFWKYAMGWYRQAPGKERELVAAISKSGGSTYYADSVKGRFTISRDNAKNTVYLQMNSLKPEDTAVYYCAAVNYRWYSRNYDHYYWGQGTQVTVSS”, for which the “polyreactivity (PSR sort gate)” value is given as “high polyreactivity”.

“QVQLVESGGGLVQAGGSLRLSCAASGSIFSLYAMGWYRQAPGKERELVAAISSSGTSTYYADSVKGRFTISRDNAKNTVYLQMYSLKTEDTAVYYCNAYRRRATYNGDYWGQGTQVTVSS”: the “polyreactivity (PSR sort gate)” value is listed as “high polyreactivity”.

As to “QVQLVESGGGLVQAGGSLRLSCAASGRIFAWYTMVWYRQAPGKERELVATISSSGGSTYYADSVKGLFTISRDNAKNTVYLQMNSLKPEDTAVYYCAAQYYPYSYAHRYGYCGQGTQVTVSS”, the “polyreactivity (PSR sort gate)” value is “high polyreactivity”.

For the sequence “QVQLVESGGGLVQAGGSLRLSCAASGFTFGIYAMGWYRQAPGKERELVADISSGGSTYYADSVKGRFTISRDNAKNTVYLQMNSLKPEDTAVYYCARDSWWYHHYDYWGQGTQVTVSS”, the “polyreactivity (PSR sort gate)” value is given as “low polyreactivity”.

With “QVQLVESGGGLVQAGGSLRLRCAASGLIFGTYAMGWYRQAPGKERELVATISQIGGSTYYADSVKGRFTISRDNAKNTVYLEMNSLKPEETAVYYCAVDGGEFSSYGYWGQGTQVTVSS”, the “polyreactivity (PSR sort gate)” value was “low polyreactivity”.

As to “QVQLVESGGGLVQAGGSLRLSCAASGRTFYYYAMGWYRQAPGKERELVAAISSSGGSTYYADSVKGRFTISRDNAKNTVYLQMNSLKPEDTAVYYCNARYGGYRARYTYNYWGQGTQVTVSS”, the “polyreactivity (PSR sort gate)” value is recorded as “high polyreactivity”.

For “QVQLVESGGGLVQAGGSLRLSCAASGRIITKYTMGWYRQAPGKVRELVAAISRSDRTNYADSVKGRFTISRDNAKNTVYLQMNSLKPEDTAVYYCNARHSYWTGRRVTDDYDYRGQGTQVTVSS”, the “polyreactivity (PSR sort gate)” value is listed as “high polyreactivity”.

As for “QVQLVESGGGLVQAGGSLRLSCAASGRIFRYYAMGWYRQAPGKERELVAAITSSGSNTYYADSVKGRFTISRDNAKNTVYLQMNSLKPEDTAVYYCNARWRLVSSGFDGGYWGQGTQVTVSS”, the “polyreactivity (PSR sort gate)” value was “high polyreactivity”.

In the case of “QVQLVESGGGLVQAGGSLRLSCAASGFTFDNYGMGWYRQAPGKERDLVAAISTSGGSTYYADSVKGRFTISRDNEKNTVYFQMNSLKPEDTADYYCNVDFYEYSSVSYDYWGQGTQVTVSS”, the “polyreactivity (PSR sort gate)” value is “high polyreactivity”.

As for “QVQLVDSGGGLVQAGGSLRLTCAASGRIFYYNPMGWNRQAPGIVRELVDAINMISGSTYYADSVKGRFTISRDNAKNSVYFQMNSLKPEDTAVYYCAAQGVDTRIFFSFGFDYWGQGTQVNVSS”, the “polyreactivity (PSR sort gate)” value is “high polyreactivity”.

In the case of “QVQLQESGGGLVQAGGSLRLSCAASGNIFEADIMGWYHQAQGKERELVASITDGGSTNYADSVKGRFTINRDNAKNNVYLQMNSLKPADTAVYYCAAIAYPDIPTYFDYDSDYFYWGQGTQVTVSS”, the “polyreactivity (PSR sort gate)” value is “high polyreactivity”.

With “QVQLVESGGGLVQAGGSLRLSCAASGSTFVDYALGWARQAPGKERELVAAISSSGGSTYYADSVKGRFTISRDTAKNTVYLQMNSLKPEDTAVYYCAARYDRSSKRNYWGQGTQVTVSS”, the “polyreactivity (PSR sort gate)” value was “low polyreactivity”.

With “QVQLVESGGGLVQAGGSLRLSCAASGITFGFNAMGWYRQAPGKERELVAAITWSVGRTYYADSVKGRFTISRDNAKNTVYLQMNSLKPEDTAVYYCAKDFEAGDDYFAYDYWGQGTQVTVSS”, the “polyreactivity (PSR sort gate)” value was “low polyreactivity”.

Regarding “QVQLVESGGGLVQAGGSLRLSCAASGYTFPPNAMGWYSQAPGKERELVAAISWRGDSTYYADSVKGRFTISRDNAKNTVYLQMISLKPEDTAVYYCAAGYRRGPDIYYYWGQVTQVTVSS”, the “polyreactivity (PSR sort gate)” value is “low polyreactivity”.

For the sequence “QVQLVESGGGLVQAGGSLRLSCAATGLIFSLYAMGWYRQAPGKERELVAAISASDGSTYYADSVKGRFTISRDNAKNTVYLQMNSLKPEDTAVYYCAADSRPTQEYDYWGQGTQVTVSS”, the “polyreactivity (PSR sort gate)” value is on record as “low polyreactivity”.

In the case of “QVQLVESGGGLVQAGGSLRLSCAASGFTFDEYAMGWYRQAPGKEREFVATISSSGGSTYYADSVKGRFTISRDNAKNTVYLQMNSLKPEDTAVYYCAADVRRLYTSGVDYWWHSEYDYWGQGTQVTLSS”, the “polyreactivity (PSR sort gate)” value is listed as “low polyreactivity”.

In the case of “QVQLVESGGGLVQAGGSLRLSCAASGSIFYGYAMGWYRQAPGKERELVAVISRRGDSTYYADSVKGRFTISRDNAKNSVYLQMNSLKPEDTAVYYCASYGSLSKGFGYWGQGTQVTVSS”, the “polyreactivity (PSR sort gate)” value was “low polyreactivity”.

Take “QVQLVESGGGLVQAGGSLRLSCAASGIIVAWYAMGWYRQAPGKERELVARISSGASPNYADSVKGRFTISRDNAKNTVYLQMNSLKPEDTSVYYCAAVSHPFRRSRYDYWRQGTQVTVSS”: the “polyreactivity (PSR sort gate)” value is recorded as “high polyreactivity”.

Take “QVQLVESGGGLVQAGGSLRLSCAASGIIFYFYAMGWYRQAPGKERELVAAISRGGSTKYADSVKGRFTISRDNAKNTVYLQMNSLKPEDTAVYYCAATRRRPSEYYYWGQGTQVTVSS”: the “polyreactivity (PSR sort gate)” value was “high polyreactivity”.

In the case of “QVQLVESGGGLVQAGGSLGLSCAASGSTFLHDAMGWYRQAPGKERELVAAISVSGVRTYYADSVKGRFTISRDNGKNTVYLQMNSLKPEDTAVYYCAADGHHADYDFWGQGTQVTVSS”, the “polyreactivity (PSR sort gate)” value was “low polyreactivity”.

“QVQLVESGGGLVQAGGSLRLSCAASRRIFSQYAMGWSRQAPGKERELVAAITWRGASTYYADSVKGRFTISRDNAKNTVYLQMNSLKPEDTAVYYCAAGYPPGRYYRVRWVGYWGQGTQVTVSS”: the “polyreactivity (PSR sort gate)” value is recorded as “high polyreactivity”.

Turning to “QVQLVESGGGLVQAGGSLRLSCAASGRTFRTYVMGWYRQAPGKERELVAAITGSGGSTYYADSVKGRFTISRDNAKNTVYLQMNSLKPEDTAVYYCAADYRWDYYWYDYAEYDYWGQGTQVTVSS”, the “polyreactivity (PSR sort gate)” value is reported as “low polyreactivity”.

For “QVQLVESGGGLVQAGGSLRLSCAASGSTFPHNAMGWYRQAPGKERELVAAISVGGGSSHYADSVKGRFTISRDNAKNNVYLQMNSLKPEDTAVYYCAKDYAYQYSFVTYDYWGQGTQVTVSS”, the “polyreactivity (PSR sort gate)” value was “low polyreactivity”.

Regarding “QDQHVESGGGLVQAGGSLRLSCAASGRTIGYNAMGLYRQAPGKERELVAAITSSSGSTYYADSVKGRFTISRDNAKNTVYLQMNSLKPEDRAVYYCAAYFRRLLYDYWGQGTHVTVSS”, the “polyreactivity (PSR sort gate)” value is “high polyreactivity”.

Consider “QVQLVESGGGLVQAGGSLRLSCAASGSIFPGYTMGWYRQAPGKERELVAAISRRGGSTYYADSVKGRITISRDNAKNSVYLQMNSLKPEDTAVYYCAKVPDYRFEYWGQGTQVTVSS”, for which the “polyreactivity (PSR sort gate)” value is “high polyreactivity”.

Turning to “QVQLVESGGGLVQAGGSLRLSCAASGSTLRGYAMGWYRQAPGKERELVARITSGGRTSYADSVKGRFTISRDNAKNTVYLQMNSLKPEDTAVYYCATRIYGWSFGSWYKYDYWGQGTQVTVSS”, the “polyreactivity (PSR sort gate)” value was “low polyreactivity”.

In the case of “QVQLVESGGGLVQAGGSLRLSCDASGRTFGNNAMGWYRQAPGKERELVASISSSGGTNYADSVKGRFTISRDNAKNTVYVQLNSLKPEDTAVYYCAKRKFTARQRYNYWGQGTQVTVSS”, the “polyreactivity (PSR sort gate)” value is reported as “high polyreactivity”.

As for “QVQLVESGGGLVQAGGSLRLSCAASGGTFDNYAMGWYRQAPGKERELVAAISWSGDNTYYADSVKGRFTISRDNAKNTVYLQMNSLKPEDTAVYYCAAVYFWYSYDEGYTAYDYWGQGTQVTVSS”, the “polyreactivity (PSR sort gate)” value is “low polyreactivity”.

Take “QVQLVESGGGLVQAGGSLRLSCAASGRTFYLYGMGWYRQAHGKETELVAAITLSDGSTYYADSVKGRFTISRDNAKNTVYLQMNSLKPEDTAVYYCAARDYPFPYAMNYWGQGTQVTVSS”: the “polyreactivity (PSR sort gate)” value is “low polyreactivity”.

In the case of “QVQLVESGGGLVQAGGSLRLSCAASGSIFYPYAMGWYRQAPGKERELVAAISYSGGSTYYADSVKGSFTISRDNAKNTVYLQMNSLKPEDTAVYYCNRRYWRRPYYKYDYWGQGTQVTVSS”, the “polyreactivity (PSR sort gate)” value is given as “high polyreactivity”.

In the case of “QVQLVESGGGLVQAGGSLRLSCAASGRTFYANAMGWYRQAPGKERELVAAISTGGDGTYYADSVKGRFTISRDNAKNTVYLQMNSLKPEDTAVYYCAVRHRASGILYDYWGQGTQVTVSS”, the “polyreactivity (PSR sort gate)” value is listed as “low polyreactivity”.
